Columns and labels:
MsGS = target: T1, MsGS (Methermicoccus shengliensis, UniProt A0A832VZP6); experiment: PK/LDH coupled assay, NADH oxidation at […] nm; format: biochemical; conditions: read-out: % inhibition at 20 mM
T1 construct: gene glnA; native, purified anaerobically from M. shengliensis cells, no tag
T1 sequence (A0A832VZP6 1-442): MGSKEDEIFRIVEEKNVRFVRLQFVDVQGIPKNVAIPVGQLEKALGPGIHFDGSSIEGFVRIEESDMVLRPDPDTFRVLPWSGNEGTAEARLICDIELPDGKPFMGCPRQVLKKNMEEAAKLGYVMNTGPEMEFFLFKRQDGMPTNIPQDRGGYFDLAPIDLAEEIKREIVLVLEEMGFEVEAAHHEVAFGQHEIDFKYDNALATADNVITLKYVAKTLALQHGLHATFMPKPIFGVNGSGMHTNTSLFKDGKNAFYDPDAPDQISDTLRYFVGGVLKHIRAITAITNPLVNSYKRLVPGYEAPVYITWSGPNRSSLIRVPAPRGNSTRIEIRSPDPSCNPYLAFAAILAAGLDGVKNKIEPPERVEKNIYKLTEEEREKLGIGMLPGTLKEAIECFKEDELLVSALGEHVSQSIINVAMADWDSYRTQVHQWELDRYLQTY

[1] = target: glutamine synthetase (GSI-α) from Methermicoccus shengliensis (Methermicoccus shengliensis); experiment: SEC; Superose 6 Increase 10/300 GL, anaerobic, 20 °C, 25 mM Tris/HCl pH 7.6, 10% glycerol, 2 mM DTT, 0.4 ml/min; 76 µg MtGS, 67.5 µg MsGS; size from a fit to standard proteins
[2] = target: glutamine synthetase (GSI-α) from Methermicoccus shengliensis (Methermicoccus shengliensis); experiment: native gel or EMSA; high-resolution clear native PAGE (hrCN PAGE), 5-12% gradient gels, 40 mA for 1 h, 2 µg purified GS; size from a fit to standard proteins
[3] = target: glutamine synthetase (GSI-α) from Methermicoccus shengliensis (Methermicoccus shengliensis); experiment: crystal structure; sitting drop, 20 °C, anaerobic; apo and ligand-bound (2OG/Mg2+, 2OG/Mg2+/ATP, Mg2+/ATP) crystal forms
[4] = target: glutamine synthetase (GSI-α) from Methanothermococcus thermolithotrophicus (Methanothermococcus thermolithotrophicus); experiment: SEC; Superose 6 Increase 10/300 GL, anaerobic, 20 °C, 25 mM Tris/HCl pH 7.6, 10% glycerol, 2 mM DTT, 0.4 ml/min; 76 µg MtGS, 67.5 µg MsGS; size from a fit to standard proteins
[5] = target: glutamine synthetase (GSI-α) from Methanothermococcus thermolithotrophicus (Methanothermococcus thermolithotrophicus); experiment: native gel or EMSA; high-resolution clear native PAGE (hrCN PAGE), 5-12% gradient gels, 40 mA for 1 h, 2 µg purified GS; size from a fit to standard proteins
[6] = target: glutamine synthetase (GSI-α) from Methanothermococcus thermolithotrophicus (Methanothermococcus thermolithotrophicus); experiment: crystal structure; sitting drop, 20 °C, anaerobic; apo and ligand-bound (2OG/Mg2+, 2OG/Mg2+/ATP, Mg2+/ATP) crystal forms
purified protein [7] = substrate: N; experiment: purified protein; conditions: 3 mM ATP, 25 mM MgCl2, pH 7, 45 °C, Hill fit
purified protein [8] = substrate: N[C@@H](CCC(=O)O)C(=O)O; experiment: purified protein; format: biochemical, Methermicoccus shengliensis; conditions: 20 mM NH4Cl, 3 mM ATP, 25 mM MgCl2, pH 7, 45 °C, standard mix contains 2 mM 2OG (no effect on MsGS), Hill fit
purified protein [9] = substrate: N[C@@H](CCC(=O)O)C(=O)O; experiment: purified protein; format: biochemical, Methanothermococcus thermolithotrophicus; conditions: in presence of 2 mM 2OG (required activator), 20 mM NH4Cl, 3 mM ATP, 25 mM MgCl2, pH 7, 45 °C, Hill fit
[10] = 80 mM glutamate, standard mix contains 2 mM 2OG (no effect on MsGS)
[11] = in presence of 2 mM 2OG (required activator), 50 mM glutamate

With `NC(=O)CC[C@H](N)C(=O)O` [glutamine] the inhibition at 20000 µM (MsGS) was 97%.

“glutamine synthetase (GSI-α) from Methermicoccus shengliensis (enzyme)” showed a stoichiometry N [1] of 12, a stoichiometry N [2] of 12 and a stoichiometry N [3] of 12.

Molecule “glutamine synthetase (GSI-α) from Methanothermococcus thermolithotrophicus (enzyme)” has a stoichiometry N [4] of 12, a stoichiometry N [5] of 12 and a stoichiometry N [6] of 12.

B1: MsGS (Methermicoccus shengliensis) (protein)
chain: T1 sequence (A0A832VZP6 1-442)
notes: native, purified anaerobically from M. shengliensis cells, no tag
In the case of B1, the Km (purified protein [7]; [10]) is reported as 0.07 ± 0.01 mM, the Vmax (purified protein [7]; [10]) is reported as 0.98 µmol/min/mg and the Km (purified protein [8]) is reported as 32.57 ± 3.13 mM. For the same molecule, the Vmax (purified protein [8]) was 1.4 µmol/min/mg.

B2: MtGS (Methanothermococcus thermolithotrophicus DSM 2095) (protein)
chain: MSTVEQVLEYVKSNNVKFMRFQFVDILGVPKNVAFPIKAGEKGIEELRDVLENGLYFDGSSIEGFVGINESDMMLKPDLSTFSVLPWRPSEKSVARVICDVYTTKGKPFEGDPRGCLKRVMEEFKKEFNGEYFVGPEPEFFLLKKDPHNPHKYIPADDGGYFDLEPMDEAPDIRRDIVFALENLGFHVEASHHEVAPGQHEVDFKFDDALKTADSVITFKTTIKTIAEQHGLKATFMPKPFFGMNGSGMHCHQSIWLNGEPSFYDENAPYQLSETCMNYVAGILKHAKAIVAITNPTVNSYKRLVPGYEAPVNIAWANSNRSAIIRVPAARGKGTRIEFRAPDPSCNPYLAFTVMLAAGLDGVKNKLDAPEPVERNIFAMSEAEKKELGIESVPANLKAALDELENNDVLKNALGKHIFESFLEIKNAEWDSFRTSVTDWETTAYLKI
notes: native, purified anaerobically from M. thermolithotrophicus cells, no tag
B2 was tested, and the Km (purified protein [7]; [11]) was 0.14 ± 0.01 mM, the Vmax (purified protein [7]; [11]) was 3.27 µmol/min/mg and the Km (purified protein [9]) was 8.76 ± 0.87 mM. It also gave a Vmax (purified protein [9]) of 3.42 µmol/min/mg.

Source: paper PMC10799026, “Differences in regulation mechanisms of glutamine synthetases from methanogenic archaea unveiled by structural investigations” (Communications Biology, 2024)
